Reference: paper PMC3938430, “Biochemical Characterization of a Haloalkane Dehalogenase DadB from Alcanivorax dieselolei B-5” (PLoS ONE, 2014)

Key:
Test in all cases: steady-state kinetics, gas chromatography (FID)
DadB = molecular target: T1, DadB (Alloalcanivorax dieselolei, UniProt K0CAI2); assay type: biochemical; conditions: 100 mM glycine buffer, pH 8.6, 37°C; substrate self-inhibition constant
T1 construct: gene B5T_00392; HLD-II subfamily, nucleophile D108
From the text: (§1) steady-state kinetics, gas chromatography (FID) on DadB

N#CCCCBr = assay type: biochemical, Alloalcanivorax dieselolei; conditions: 100 mM glycine buffer, pH 8.6, 37°C, fit with substrate inhibition
From the text: as §1

C=C(C)CCl = system: T2, C=C(C)CCl; assay type: biochemical, Alloalcanivorax dieselolei; conditions: 100 mM glycine buffer, pH 8.6, 37°C
T2 construct: HLD-II subfamily, nucleophile D108
From the text: as §1

C=C(Cl)CCl = system: T3, C=C(Cl)CCl; assay type: biochemical, Alloalcanivorax dieselolei; conditions: 100 mM glycine buffer, pH 8.6, 37°C
T3 construct: HLD-II subfamily, nucleophile D108
From the text: as §1

BrCCBr = system: T4, BrCCBr; assay type: biochemical, Alloalcanivorax dieselolei; conditions: 100 mM glycine buffer, pH 8.6, 37°C
T4 construct: HLD-II subfamily, nucleophile D108
From the text: as §1

CCCCCl = assay type: biochemical, Alloalcanivorax dieselolei; conditions: 100 mM glycine buffer, pH 8.6, 37°C
From the text: as §1

BrCCCBr = assay type: biochemical, Alloalcanivorax dieselolei; conditions: 100 mM glycine buffer, pH 8.6, 37°C
From the text: as §1

Compound	k i (DadB) [mM]	Km (N#CCCCBr) [mM]	kcat (N#CCCCBr) [s⁻¹]	kcat/Km (N#CCCCBr) [M⁻¹ s⁻¹]	Km (C=C(C)CCl) [mM]	kcat (C=C(C)CCl) [s⁻¹]	kcat/Km (C=C(C)CCl) [M⁻¹ s⁻¹]	Km (C=C(Cl)CCl) [mM]	kcat (C=C(Cl)CCl) [s⁻¹]	kcat/Km (C=C(Cl)CCl) [M⁻¹ s⁻¹]	Km (BrCCBr) [mM]	kcat (BrCCBr) [s⁻¹]	kcat/Km (BrCCBr) [M⁻¹ s⁻¹]	Km (CCCCCl) [mM]	kcat (CCCCCl) [s⁻¹]	kcat/Km (CCCCCl) [M⁻¹ s⁻¹]	Km (BrCCCBr) [mM]	kcat (BrCCCBr) [s⁻¹]	kcat/Km (BrCCCBr) [M⁻¹ s⁻¹]
N#CCCCBr [4-bromobutanenitrile]	17.93 ± 1.97	–	–	–	–	–	–	–	–	–	–	–	–	–	–	–	–	–	–
DadB (Alloalcanivorax dieselolei B5)	–	8.47 ± 1.27	30.8 ± 2.49	3640	11.33 ± 0.99	34.3 ± 1.99	3020	15.06 ± 1.37	20.1 ± 1.09	1330	8.70 ± 0.44	17.9 ± 0.5	2060	4.88 ± 0.35	1.17 ± 0.1	240	0.82 ± 0.04	13.4 ± 0.99	16400
